Measured values published in publication PMC11188837 (mAbs, 2024).
No end group written: not given here. *: point of attachment. FITC = O=C1OC2(c3ccc(O)cc3Oc3cc(O)ccc32)c2ccc(NC(=S)*)cc21; Ahx = NCCCCCC(=O)O

Columns and labels:
[1] = target: integrin αVβ8 ectodomain (human) (human, UniProt P06756-1;P26012-1); test: fluorescence polarisation
[2] = target: integrin αVβ6 ectodomain (human) (human, UniProt P06756-1;P18564-1); test: fluorescence polarisation
integrin αVβ6 ectodomain (human), sequence (P06756 31-992, chain 1 of 2): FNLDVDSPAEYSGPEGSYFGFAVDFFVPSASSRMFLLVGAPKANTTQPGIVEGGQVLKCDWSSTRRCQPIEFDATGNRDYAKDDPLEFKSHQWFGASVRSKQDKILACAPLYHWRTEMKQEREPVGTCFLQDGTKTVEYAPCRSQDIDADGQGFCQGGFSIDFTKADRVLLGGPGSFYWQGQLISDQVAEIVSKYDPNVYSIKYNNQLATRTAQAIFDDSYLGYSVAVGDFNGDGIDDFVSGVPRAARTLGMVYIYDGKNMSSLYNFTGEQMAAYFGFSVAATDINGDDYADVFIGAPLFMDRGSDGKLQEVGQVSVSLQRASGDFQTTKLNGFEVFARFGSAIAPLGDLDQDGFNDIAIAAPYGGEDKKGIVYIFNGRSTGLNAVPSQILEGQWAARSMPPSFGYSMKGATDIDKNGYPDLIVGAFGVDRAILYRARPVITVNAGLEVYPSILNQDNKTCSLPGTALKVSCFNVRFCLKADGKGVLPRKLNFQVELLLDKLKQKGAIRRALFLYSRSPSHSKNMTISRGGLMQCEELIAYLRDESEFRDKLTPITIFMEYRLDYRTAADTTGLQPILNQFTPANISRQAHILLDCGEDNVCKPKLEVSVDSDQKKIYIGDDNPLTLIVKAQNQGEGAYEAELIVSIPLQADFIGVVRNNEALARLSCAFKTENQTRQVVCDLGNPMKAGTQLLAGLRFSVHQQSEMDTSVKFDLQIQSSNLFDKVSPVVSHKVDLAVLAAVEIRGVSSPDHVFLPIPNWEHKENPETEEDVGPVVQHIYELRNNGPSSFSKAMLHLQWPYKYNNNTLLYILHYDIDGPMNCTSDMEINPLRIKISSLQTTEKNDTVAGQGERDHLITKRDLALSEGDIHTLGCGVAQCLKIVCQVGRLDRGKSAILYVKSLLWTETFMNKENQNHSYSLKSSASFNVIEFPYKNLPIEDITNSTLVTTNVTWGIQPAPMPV
integrin αVβ6 ectodomain (human), sequence (P18564 22-709, chain 2 of 2): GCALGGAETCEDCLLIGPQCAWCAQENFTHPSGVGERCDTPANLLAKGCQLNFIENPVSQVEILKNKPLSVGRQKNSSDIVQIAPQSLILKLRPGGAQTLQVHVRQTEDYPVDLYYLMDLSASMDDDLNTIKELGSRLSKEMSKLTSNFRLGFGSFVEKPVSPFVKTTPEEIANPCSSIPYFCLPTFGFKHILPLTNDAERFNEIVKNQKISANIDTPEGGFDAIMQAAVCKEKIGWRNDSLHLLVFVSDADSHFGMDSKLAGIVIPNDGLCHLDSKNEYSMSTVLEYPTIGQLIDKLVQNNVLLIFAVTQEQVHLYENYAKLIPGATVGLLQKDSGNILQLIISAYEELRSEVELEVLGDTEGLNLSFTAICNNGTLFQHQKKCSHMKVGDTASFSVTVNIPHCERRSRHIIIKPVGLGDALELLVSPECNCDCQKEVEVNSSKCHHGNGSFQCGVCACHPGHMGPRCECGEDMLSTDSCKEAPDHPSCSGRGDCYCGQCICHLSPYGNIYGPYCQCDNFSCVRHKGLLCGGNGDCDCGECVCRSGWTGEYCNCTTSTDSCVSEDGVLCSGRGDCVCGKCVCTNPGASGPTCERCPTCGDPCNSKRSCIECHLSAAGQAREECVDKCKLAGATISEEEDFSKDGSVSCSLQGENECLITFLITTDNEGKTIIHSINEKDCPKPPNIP

integrin αVβ8 ectodomain (human), sequence (P06756 31-992, chain 1 of 2): as the sequence (P06756 31-992, chain 1 of 2) above
integrin αVβ8 ectodomain (human), sequence (P26012 43-684, chain 2 of 2): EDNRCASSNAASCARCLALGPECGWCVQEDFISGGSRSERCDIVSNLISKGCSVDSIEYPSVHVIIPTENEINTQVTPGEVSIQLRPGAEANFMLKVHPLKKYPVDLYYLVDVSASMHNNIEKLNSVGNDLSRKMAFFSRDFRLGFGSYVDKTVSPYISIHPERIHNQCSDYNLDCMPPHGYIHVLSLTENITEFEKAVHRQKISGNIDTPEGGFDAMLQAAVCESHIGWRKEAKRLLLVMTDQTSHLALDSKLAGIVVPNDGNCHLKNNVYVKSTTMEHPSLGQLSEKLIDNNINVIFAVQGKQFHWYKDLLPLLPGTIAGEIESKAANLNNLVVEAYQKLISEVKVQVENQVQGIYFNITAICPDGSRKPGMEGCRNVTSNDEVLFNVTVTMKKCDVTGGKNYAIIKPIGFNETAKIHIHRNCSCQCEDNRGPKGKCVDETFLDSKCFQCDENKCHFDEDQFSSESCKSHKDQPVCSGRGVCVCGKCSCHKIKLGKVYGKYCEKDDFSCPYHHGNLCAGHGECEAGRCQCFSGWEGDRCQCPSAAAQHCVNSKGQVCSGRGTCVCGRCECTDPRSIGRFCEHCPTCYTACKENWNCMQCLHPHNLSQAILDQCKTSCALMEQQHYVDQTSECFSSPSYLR

binding result [1]: binds
binding result [2]: binds
B1: FITC-labeled aminocaproic acid-GRGDLGRLKK peptide (peptide)
peptide: {FITC-Ahx}-GRGDLGRLKK
